T1: hSIRPαV4 (NA11832_V4) (human, UniProt P78324 31-504)
T1 construct: also called human SIRPαV4
T1 chain: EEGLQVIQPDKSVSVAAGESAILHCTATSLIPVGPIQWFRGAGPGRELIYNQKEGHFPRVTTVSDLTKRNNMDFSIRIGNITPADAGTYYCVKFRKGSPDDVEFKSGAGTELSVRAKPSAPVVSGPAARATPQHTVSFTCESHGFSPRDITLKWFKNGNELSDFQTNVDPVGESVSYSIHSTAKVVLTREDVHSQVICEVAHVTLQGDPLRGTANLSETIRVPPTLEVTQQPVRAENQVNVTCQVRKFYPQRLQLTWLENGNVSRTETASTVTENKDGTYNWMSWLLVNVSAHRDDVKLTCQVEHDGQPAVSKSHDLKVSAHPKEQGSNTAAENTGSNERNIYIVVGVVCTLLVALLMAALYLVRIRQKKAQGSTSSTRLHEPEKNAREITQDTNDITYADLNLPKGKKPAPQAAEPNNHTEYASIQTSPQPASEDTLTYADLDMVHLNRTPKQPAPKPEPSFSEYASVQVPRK


How the values were obtained:
hSIRPαV9 (NA18943_V9) = biological target: T2, hSIRPαV9 (NA18943_V9) (human, UniProt P78324 31-504); experiment: CELISA, CHO-K1 transfectants
T2 construct: also called human SIRPαV9
Method: (§1) The binding specificity of antibodies hSIRPα.40A and hSIRPα.50A to hSIRPα were compared in a CELISA format. In short, CHO-K1 cells were transiently transfected with hSIRPαV1, hSIRPαV2, hSIRPβ1, hSIRPβL, and hSIRPγ cDNAs. Subsequently, hSIRPα binding was assessed by CELISA using CHO-K1.hSIRPαV1, CHO-K1.hSIRPαV2, CHO-K1.hSIRPβ1, CHO-K1.hSIRPβL, and CHO-K1.hSIRPγ cells. Detection of bound antibody was done with goat-anti-mouse IgG-HRP (Southern Biotech).
(§2) In addition, the specificity of hSIRPα.40A for all known of hSIRPα alleles (allelic variants as described by Takenaka et al., Nat Immunol. 8:1313-1323 (2007) was further investigated by CELISA using the same strategy as above. To this end, hSIRPα.40A binding was assessed using CHO-K1 cells that were transiently transfected with cDNAs encoding full length hSIRPαV1, hSIRPαV2, hSIRPαV3 (NA07056_V3) (SEQ ID NO: 44), hSIRPαV4 (NA11832_V4) (SEQ ID NO: 46), hSIRPαV5 (NA18502_V5) (SEQ ID NO: 48), hSIRPαV6 (NA18507_V6) (SEQ ID NO: 50), hSIRPαV8 (NA18570_V8) (SEQ ID NO: 52), and hSIRPαV9 (NA18943_V9) (SEQ ID NO: 54).

hSIRPαV8 (NA18570_V8) = biological target: T3, hSIRPαV8 (NA18570_V8) (human, UniProt P78324 31-504); experiment: CELISA, CHO-K1 transfectants
T3 construct: also called human SIRPαV8
Method: as §1, §2

hSIRPαV5 (NA18502_V5) = biological target: T4, hSIRPαV5 (NA18502_V5) (human, UniProt P78324 31-504); experiment: CELISA, CHO-K1 transfectants
T4 construct: also called human SIRPαV5
Method: as §1, §2

human SIRPα variant 1 = biological target: T5, human SIRPα variant 1 (human, UniProt P78324 31-504); experiment: CELISA, CHO-K1 transfectants
T5 construct: full length ORF on transfected CHO-K1 or HEK293 cells; entry includes the signal peptide; also called hSIRPαV1; SIRPαV1
Method: as §1, §2

hSIRPαV4 (NA11832_V4) = biological target: T1, hSIRPαV4 (NA11832_V4); experiment: CELISA, CHO-K1 transfectants
Method: as §1, §2

hSIRPαV3 (NA07056_V3) = biological target: T6, hSIRPαV3 (NA07056_V3) (human, UniProt P78324 31-504); experiment: CELISA, CHO-K1 transfectants
T6 construct: also called human SIRPαV3
Method: as §1, §2

hSIRPαV6 (NA18507_V6) = biological target: T7, hSIRPαV6 (NA18507_V6) (human, UniProt P78324 31-504); experiment: CELISA, CHO-K1 transfectants
T7 construct: also called human SIRPαV6
Method: as §1, §2

human SIRPα variant 2 = biological target: T8, human SIRPα variant 2 (human, UniProt P78324 31-504); experiment: CELISA, CHO-K1 transfectants
T8 construct: full length ORF on transfected CHO-K1 cells; also called hSIRPαV2; SIRPαV2
Method: as §1, §2

[1] = biological target: T9, hSIRPα expressed on primary human cells (human, UniProt P78324 31-504); experiment: flow cytometry, primary human granulocytes, donor 1
T9 construct: whole, on cells; also called hSIRPα on primary human CD14+ monocytes; on primary human granulocytes
T9 sequence (P78324 31-504): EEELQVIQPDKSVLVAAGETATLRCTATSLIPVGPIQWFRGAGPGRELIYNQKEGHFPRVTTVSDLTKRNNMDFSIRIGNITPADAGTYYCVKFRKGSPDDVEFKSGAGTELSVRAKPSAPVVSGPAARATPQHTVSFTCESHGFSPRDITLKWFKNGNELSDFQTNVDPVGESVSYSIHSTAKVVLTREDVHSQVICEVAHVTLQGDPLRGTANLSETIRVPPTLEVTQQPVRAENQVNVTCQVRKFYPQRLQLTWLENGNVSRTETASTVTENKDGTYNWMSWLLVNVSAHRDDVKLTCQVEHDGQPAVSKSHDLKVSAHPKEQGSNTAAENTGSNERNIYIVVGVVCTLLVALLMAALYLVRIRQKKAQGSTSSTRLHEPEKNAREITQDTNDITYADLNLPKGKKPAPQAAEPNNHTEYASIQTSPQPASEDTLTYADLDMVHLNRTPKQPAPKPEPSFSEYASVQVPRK
Method: Next, cells were centrifuged at 300 g for 7 minutes. Supernatants containing lysed RBCs were removed by aspiration, and the remaining blood cells were gently resuspended in RBC lysis buffer and kept on ice for 1 minute. RBC lysis was neutralized by adding assay medium (IMDM (Gibco) supplemented with 10% Fetal Bovine Serum (Gibco) and Pen/Strep (Gibco)). Blood cells were centrifuged at 300 g for 6 minutes and supernatants were removed by aspiration to remove remaining RBCs as much as possible. Subsequently, erythrocyte-lysed blood cells were resuspended in assay medium containing 10 ng/mL IFNγ and cells were incubated for 1 hour at 37° C., 5% CO₂ and 95% humidity. […] The percentage of granulocytes present in the cell suspension was determined by flow cytometry on the FACSCanto II (BD Biosciences) based on high forward scatter (FSC) and side scatter (SSC). Binding of hSIRPα.50A to human granulocytes was assessed by incubating the cells for 30 minutes at 4° C. with hSIRPα.50A antibody (25 μg/mL and dilutions thereof) in PBS/1% BSA containing 10% autologous serum (PBS/1% BSA/10% serum). […] After this labeling procedure, cells were washed two times, resuspended in PBS/1% BSA/10% serum and analysed by flow cytometry on the FACSCanto II (BD Biosciences). Data were processed and analysed with FlowJo V10 software (FlowJo, LLC). […]

Row | EC50 (hSIRPαV9 (NA18943_V9)) [nM] | EC50 (hSIRPαV8 (NA18570_V8)) [nM] | EC50 (hSIRPαV5 (NA18502_V5)) [nM] | EC50 (human SIRPα variant 1) [nM] | EC50 (hSIRPαV4 (NA11832_V4)) [nM] | EC50 (hSIRPαV3 (NA07056_V3)) [nM] | EC50 (hSIRPαV6 (NA18507_V6)) [nM] | EC50 (human SIRPα variant 2) [nM] | EC50 [1] [nM] | Binder
1 | 1.37 | 1.51 | 1.26 | 1.69 | 1.3 | 1.77 | 2.22 | 1.07 | 4.3 | hSIRPα.50A (antibody, V domains shown, light chain constant domain not tied; also called mouse hSIRPα.50A; hSIRPα.50A.mIgG1) VH: QVQLQQSGPELVKPGASVRISCKASGFTFTNYYIHWVKQRPGQGLEWIGWIYPGNVNTKYNEKFKAKATLTADKSSTTAYMQLSSLASEDSAVYFCARPTIIATDFDVWGAGTTVTVSS VL: DIVMTQSHKFMSTSVGDRVNITCKASQGVGTAVGWYQQKPGQSPRLLIYWASTRHTGVPDRFTGSGSGTDFSLAISNVQSEDLADYFCQQYSTYPFTFGGGTNLEIK
2 | 0.115 | 0.089 | 0.115 | 0.134 | 0.1 | 0.107 | 0.136 | 0.089 | 1.23 | hSIRPα.40A (antibody, mouse IgG1, kappa, V domains shown, mouse antibody, full chains without signal peptide; also called mouse hSIRPα.40A) VH: EVQFQQSGTVLARPGTSVKMSCKASGSTFTSYWMHWVKQGPGQGLQWIGAIYPVNNDTTYNQKFKGKAELTVVTSTSTAYMEVSSLTNEDSAVYYCTRSFYYSLDAAWFVYWGQGTLVTVSA VL: DIQMTQSPSSLSASLGERVSLTCRASQDIGSRLNWLQQEPDGTIKRLIYATSSLDSGVPKRFSGSRSGSDYSLTISGLESEDFVDYYCLQYASSPFTFGGGTKLEINR

— patent US20180312587A1 (ADURO BIOTECH HOLDINGS EUROPE B V, published 2018)
